Data published in the supplement of paper PMC12042874.
± gives the uncertainty stated by the source.

Assay: amyloid nucleation score (Sup35N fusion, yeast selection) (log enrichment); library NNK2; higher = more nucleation; inactive = no reads after selection
How it was run: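 The nucleation score, computed with DiMSum, is the log enrichment of output over input reads, centred on the mode score of non-aggregating sequences. Sequences with under 100 input reads were dropped. Reads were generated by Illumina sequencing of plasmid inserts from psi-negative yeast with Sup35N fused to peptides of 20 random codons, induced with 100 μM copper sulfate for 24 hours and grown 7 days at 30°C on medium lacking adenine and uracil.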

Substance	amyloid nucleation score
AAAYCYRTEEW	1.6 ± 0.22
ACCRTNFATLVLKEKMNLD	0.326 ± 0.3
ACFSNMDCPGGFVHVFALYG	inactive
ACQPVWIESRFSLAERTRLS	0.012 ± 1
ACRLISLVML	inactive
ACVTPTAARNQIPALIYDTS	-0.135 ± 0.63
ADCFWAIDYPTWAYRIYGSH	inactive
ADLSRRLGMFVVLCLGGWAW	-0.326 ± 0.63
ADRWYYMQPNTLCSNVTANA	1.26 ± 0.37
ADYGVGSRFFVALFSNVFGV	8.15 ± 0.071
ADYLRDSFQRWLMEVGLDRR	1.44 ± 0.26
AEADGYLFSALHTPYWTSGV	0.294 ± 0.64
AEQRWTVRIVLSYYVSKINI	0.316 ± 0.65
AFCMDYAAQSAVTRSRDSCS	0.909 ± 0.53
AFESKAPGRSSLVGIACSYS	-0.48 ± 0.48
AFFACRNASSHTLWMLG	5.91 ± 0.07
AFHRECPGSSVQDWFTWRGT	-0.36 ± 0.63
AFLSLFNSYWYFVFAKLF	-0.558 ± 0.74
AFQWYLM	-0.693 ± 0.18
AFSSCSMFATNRLPTSYKSD	3.48 ± 0.084
AFTCYVETSIIMPNMS	-0.734 ± 0.76
AFYCQRDRVE	3.18 ± 0.099

Substance	amyloid nucleation score
AGLLPENYFSCILGINVVIF	3.13 ± 0.065
AGPAQQYMCMTCVTSVHTDP	8.84 ± 0.045
AGPDSVQCRCSLKSSEGSCG	6.776 ± 0.066
AGRLLGNVGNWRANEGAGGD	-0.833 ± 1.1
AGSSSVNQITCLH	-0.22 ± 1
AHHCVGYCSHIFQDPRGRVM	0.22 ± 0.44
AHKLCSFSVSKHHFWRLNGK	-0.023 ± 0.62
AHLAKSKVGLFCHNVMFEVP	-0.381 ± 1.1
AHLARGGWFVKRCYSGGDVF	-0.087 ± 0.76
AICMAY	1.27 ± 0.095
AINLGSDYKWSGMAFVKG	0.285 ± 1
AIPSRPSFLKPQPRILFTIP	-0.702 ± 0.39
AISGWCNMNCKLGKQWDYLV	1.25 ± 0.66
AISVKKWSFHEKKRNTMLT	-0.027 ± 0.28
AIWGTHPQRRDIRKRERIVV	-0.205 ± 0.27
AKCPIRNRSLSCIQWSGGAK	0.398 ± 0.27
AKDRTCRWLISKQSIPDSRA	0.119 ± 0.27
AKKLMSWEAVVLWGASRCVT	1.08 ± 0.42
AKVWDCGSPKVQYIVARQVV	0.042 ± 0.46
ALAACSNSRG	0.416 ± 0.54
ALCRGW	-0.689 ± 0.41
ALCWVGSYSACLRIFKPSRM	0.521 ± 0.41

Substance	amyloid nucleation score
ALFRD	0.066 ± 1
ALFSIITVFSVRLVVWT	inactive
ALGENAPILDRWLIGSLVFL	1.77 ± 0.39
ALHSWFRMSSLSMYIVDMGG	-0.077 ± 0.76
ALKNLHAHTG	0.015 ± 0.8
ALPCRLISFFALVGWIVG	-0.088 ± 0.49
ALPTWWVDKNLLSCLYSELS	-0.104 ± 0.62
ALRISQFCIL	-0.261 ± 1.1
ALRYVMRLY	2.53 ± 0.11
ALSYFTGCRF	0.766 ± 0.47
ALYLMTFPSRDLIRACEEA	0.678 ± 0.56
AMGMRTSYCGC	inactive
AMPSNMLGTSGSYDAC	0.404 ± 0.66
AMQVVTVLNATACEMWAMGL	7.498 ± 0.034
AMTTRFCGVFLKGWL	0.176 ± 0.64
AMVLLYDGTGSTGVNPGQAG	0.987 ± 0.67
AMVWGSIFSRKSQGLSHSSG	inactive
ANLFVCMDDM	-0.051 ± 0.23
ANLRNSW	-0.82 ± 0.56
ANQDGNCFGFISVGSQLSLM	0.387 ± 0.8
ANWQWPYCCCCLEGIGRNLF	4.94 ± 0.073
APFLGRLEVRV	0.563 ± 0.37

Substance	amyloid nucleation score
APFQRPSSPTDREYRNGALL	1.27 ± 0.23
APTQDTLEFRHISFEVVWRT	2.84 ± 0.18
AQAMLSNTILIYEYRDLFIV	-0.962 ± 0.78
AQNLGFHEMGLAKCCRVGLY	0.233 ± 0.44
AQVDGSISSSSVVSVLKSEV	-0.262 ± 0.36
ARCIQVMVIGISWRVGCMPT	0.521 ± 0.36
ARCNCL	0.559 ± 0.49
ARDNQMARDI	2.83 ± 0.15
AREHPKY	0.645 ± 0.14
ARFASIWVWTLGDCWRKCSY	-0.152 ± 0.76
ARFFGFYYPTTGIPGNYGFC	-0.315 ± 1
ARHMHSASYNYTGTRSYSFY	5.56 ± 0.091
ARNPDFRCDSASI	-0.146 ± 1
ARSLTKSLARYRGRMQMTGP	0.929 ± 0.3
ARTRLALWGLQRRGSPVFDN	0.157 ± 0.63
ARTSLCESTWPTNVRIGPKS	0.498 ± 0.64
ASAAAHVRIYQMIFVFERQL	0.001 ± 0.48
ASASSVIAMRNRMGGLNRFC	-0.302 ± 0.24
ASEGVGCFV	inactive
